We go through 24 proteins from patent US20180371429.

Numbering of substitutions follows the chain as printed.

T1: α-fructosyl-valyl-histidyl-leucyl-threonyl-prolyl-glutamyl-glutamyl-lysine (not fully specified)
T1 chain: VHLTPEEK

B1: CFP-DH2 (protein)
chain: MTSNRADTRVIVVGGGGTIGSSTALHLVRSGYAPANITVLDTFPIPSAQSAGHDLNKIMGIDHRNKVNLQMSLEARQMWKEDELFQPFFHNTGRMDCEHTPKGIEKLKKLYQKLHDAGAGLEKTHAWLDNEDAILSKMPLLQRDQIQGWKAIWSQDGGWLAAAKAINAIGQFLKERGVKFGFGGAGSFKQPLFDDEGTTCIGVETADGTKYYADKVVLAAGAWSPTLVDLEDQCCSKAWVYAHIQLTPEEAAKYKGCPVVYHGEFGFFFEPDEFGVIKVCDEFPGFSRFKEHQPYGAPSPKRISVPRSHAKHPTDTYPDASEVSIKKAIATFLPRFKDKPLFNRALCWCTDTADSTLLMCEHPKWKNFILATGDSGHSFKILPNVGKYVVELIEGRLPEEMAYQWRWRPGGDALKSRRAAPPKDLADMPGWKHD
B2: CFP-DH3 (protein)
chain: B1 chain with R64G
B3: CcFX-62D/63H/102K/106K (protein)
chain: MAPSRANTSVIVVGGGGTIGSSTALHLVRSGYTPSNITVLDTYPIPSAQSAGNDLNKIMGIDHRNKVDLQLSLEARQMWREDDLFKEYFHNTGRLDCAHGEKGLAKLRQAYQALLDANAGLEETTEWLDSEDEILKKMPLLDREQIKGWKAVYSQDGGWLAAAKAINAIGEYLRAQGVKFGFGGAGSFKQPLLAEGVCIGVETVDGTRYYADKVVLAAGAWSPVLVDLEDQCVSKAWVYAHIQLTPEEAAEYKNVPVVYNGDVGFFFEPDEHGVIKVCDEFPGFTRFKQHQPYGAKAPKRISVPRSAAKHPTDTYPDASEKSIRKAIATFLPKFTEKELFNRHLCWCTDTADAALLMCEHPEWKNFVLATGDSGHTFKLLPNIGKHVVELLEGTLAEDLAHAWRWRPGTGDALKSRRAAPAKDLADMPGWKHDDVVKSKL
B4: CcFX-62D/63H/102K/106K-64T (protein)
chain: B3 chain with R64T
B5: CcFX-62D/63H/102K/106K-64L (protein)
chain: B3 chain with R64L
B6: NvFX-62D/63H/106K/110L (protein)
chain: MTTPRKETTVLIIGGGGTIGSSTALHLLRAGYTPSNITVLDTYPIPSAQSAGNDLNKIMGIDHRNKVDLQLSLEARDMWRNDALFRPFFHNTGRLDCESSAEGVEKLRRLYQKLVEAGVGLEETHEWLDSEEAILEKAPLLQREEIEGWKAIWSEEGGWLAAAKAINAIGEELQRQGVRFGFGGAGSFKRPLFADDGTTCIGVETVDGTQYHADKVVLAAGAWSPALVDLEEQCCSKAWVYAHMQLTPEEAAVYKGCPVVYHGDVGFFFEPNENGVIKVCDEFPGFTRFKQHQPYGAPAPKPVSVPRSHAKHPTDTYPDASEESIKRAVSTFLPRFKDKPLFNRALCWCTDTADSALLICEHPRWKNFILATGDSGHSFKLLPIIGKHVVELVEGRLADDLAEAWRWRPGQGDARKSIRAAPAKDLADMPGWKHDQDSESR
B7: NvFX-62D/63H/106K/110L-64T (protein)
chain: B6 chain with R64T
B8: NvFX-62D/63H/106K/110L-64S (protein)
chain: B6 chain with R64S
B9: NvFX-62D/63H/106K/110L-64M (protein)
chain: B6 chain with R64M
B10: PnFX-62D/63H/106K/110L/113K/351S (protein)
chain: MAPSRANTSVIVVGGGGTIGSSTALHLVRSGYTPSNVTVLDAYPIPSSQSAGNDLNKIMGVDHRNPVDLQLALEARQMWNEDELFKKFFHNTGRLDCAHGEKDIAKLKSLYQKLVDAGLDATNEWLDSEDEILKRMPLLSRDQIKGWKAIFSKDGGWLAAAKAINAVGEYLRDQGVRFGFYGAGSFKAPLLAEGVCIGVETVDGTRYYADKVVLAAGAWSPTLVELHEQCVSKAWVYGHIQLTPEEAARYKNSPVVYNGDVGFFFEPNEHGVIKVCDEFPGFTRFKMHQPFGAKAPKRISVPRSHAKHPTDTIPDASDVSIRRAIATFMPQFKNKKMFNQAMCWCTDTADSALLICEHPEWKNFVLATGDSGHSFKLLPNIGKHVVELLEGTLADDLAHAWRWRPGSGDALKSRRSAPAKDLADMPGWNHDKPRANL
B11: PnFX-62D/63H/106K/110L/113K/351S-64S (protein)
chain: B10 chain with R64S
B12: CFP-T7-H38-V (protein)
chain: MTSNRADTRVIVVGGGGTIGSSTALHLVRSGYAPANITVLDTFEIPSAQSAGHDLNKIMGIDHVNKVNLQMSLEARQMWKEDELFQPFFHNTGRMDCEHTPKGIEKLKKLYQKLHDAGAGLEKTHAWLDNEDEILSKMPLLQRDQIQGWKAIWSQDGGWLAAAKAINAIGQFLKERGVKFGFGGAGSFKQPLFDDEGTTCIGVETADGTKYYADKVVLAAGAWSPTLVDLEDQCCSKAWVYAHIQLTPEEAAEYKGVPVVYNGEFGFFFEPDEFGVIKVCDEFPGFSRFKEHQPYGAPSPKRISVPRSHAKHPTDTYPDASEVSIKKAIATFLPRFQDKELFNRALCWCTDTADSTLLMCEHPKWKNFILATGDSGHSFKILPNVGKYVVELIEGRLPEEMAYQWRWRPGGDALKSRRAAPPKDLADMPGWKHDPKL
B13: CFP-T7-H38-M (protein)
chain: B12 chain with V64M
B14: CFP-T7-H38-G (protein)
chain: B12 chain with V64G
B15: CFP-T7-H38-I (protein)
chain: B12 chain with V64I
B16: CFP-T7-H38-GYS (protein)
chain: B12 chain with V64G, H99S, L110Y
B17: CFP-T7-H38-GY (protein)
chain: B12 chain with V64G, L110Y
B18: CFP-T7-H37 (protein)
chain: B12 chain with V64R
B19: CFP-T7-H38-S (protein)
chain: B12 chain with V64S
B20: CFP-T7-H38-L (protein)
chain: B12 chain with V64L
B21: CFP-T7-H38-GF (protein)
chain: B12 chain with V64G, L110F
B22: CFP-T7-H38-GH (protein)
chain: B12 chain with V64G, L110H
B23: CFP-T7-H38-T (protein)
chain: B12 chain with V64T
B24: CFP-T7-H38-A (protein)
chain: B12 chain with V64A

This series addresses T1, α-fructosyl-valyl-histidyl-leucyl-threon ….
As to B1, the Specific activity (U/mg), 1 mM αF8P was determined as 2.8 U/mg.

Regarding B2, the Specific activity (U/mg), 1 mM αF8P stood at 4.9 U/mg and the “fold improvement of specific activity on αF8P against CFP-DH2” value is given as “by 1.51 to 1.75 times”.

Turning to B3, the Specific activity (mU/mg), 10 µM αF8P came out at 1.3 mU/mg.

As to B4, the Specific activity (mU/mg), 10 µM αF8P was 1.5 mU/mg.

In turn, B5 displayed a Specific activity (mU/mg), 10 µM αF8P of 2 mU/mg.

B6 returned a Specific activity (mU/mg), 10 µM αF8P of 0.3 mU/mg.

For the protein B7, the Specific activity (mU/mg), 10 µM αF8P stood at 0.38 mU/mg.

As for B8, the Specific activity (mU/mg), 10 µM αF8P was determined as 0.37 mU/mg.

B9 had a Specific activity (mU/mg), 10 µM αF8P of 0.42 mU/mg.

In the case of B10, the Specific activity (mU/mg), 10 µM αF8P was found to be 2 mU/mg.

For the protein B11, the Specific activity (mU/mg), 10 µM αF8P was 2.2 mU/mg.

B12 returned a Specific activity (mU/mg), 10 µM αF8P of 86 mU/mg.

On to B13, for which the Specific activity (mU/mg), 10 µM αF8P was determined as 84.4 mU/mg.

For the protein B14, the Specific activity (U/mg), 1 mM αF8P turned out to be 6.33 U/mg; the Specific activity (mU/mg), 10 µM αF8P was determined as 95.9 mU/mg; the “fold improvement of specific activity on αF8P against CFP-T7-H37” value is given as “by 1.51 to 1.75 times”.

The protein B15 showed a Specific activity (mU/mg), 10 µM αF8P of 78.7 mU/mg.

B16 came in with a Specific activity (mU/mg), 10 µM αF8P of 196 mU/mg.

B17 gave a Specific activity (mU/mg), 10 µM αF8P of 174 mU/mg.

Turning to B18, the Specific activity (U/mg), 1 mM αF8P is 4.18 U/mg and the Specific activity (mU/mg), 10 µM αF8P amounted to 44.4 mU/mg.

Consider B19, for which the Specific activity (mU/mg), 10 µM αF8P was 89.7 mU/mg.

Regarding B20, the Specific activity (mU/mg), 10 µM αF8P is 84.3 mU/mg.

With B21, the Specific activity (mU/mg), 10 µM αF8P is 145 mU/mg.

Take B22: the Specific activity (mU/mg), 10 µM αF8P turned out to be 143 mU/mg.

Turning to B23, the Specific activity (mU/mg), 10 µM αF8P was found to be 78.7 mU/mg.

B24 returned a Specific activity (U/mg), 1 mM αF8P of 3.26 U/mg.
